From article PMC8665133 come the findings set out here.

Values joined by “and” are separate entries in the source; they are usually repeats but may differ in a detail not shown here. Equal entries are not always repeated. Where two headings read alike, the source gives them in different places.

For test [1], the target named is T1, Transmembrane domain peptide of AM2 (TM-AM2), wild type (influenza A virus (strain not stated)). Put plainly: native MS.
The target in test [2] is T1, Transmembrane domain peptide of AM2 …. Nature of the test: native MS. This is another data set of the same source.

B1: Transmembrane domain peptide of AM2 (TM-AM2), wild type (peptide)
chain: SDPLVVAASIIGILHLILWIL
modifications: not checked
For B1, the stoichiometry N (commonly the number of molecules, sites or subunits per partner or assembly) in test [1] was 2 and 4; in test [2], 6.
